Data from the supplement of paper PMC9170038.

System: MS2 coat protein
Assay: apparent KD of MS2 coat protein; designed switch direction (-1 OFF switch, 1 ON switch): -1; higher = weaker reporter binding
Summary of the method: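 The reported apparent KD is a per-design median over clusters, from curve fits of normalised cluster fluorescence. Protein titrations used SNAP-549-labelled MS2 coat protein, doubled from 0.7 or 1.5 nM to 3 µM, in Tris-HCl pH 7.5 buffer with KCl, MgCl2, BSA, DTT, tRNA and Tween-20, with no input, 200 uM small-molecule ligand, or an oligonucleotide input. The RNA switches were transcribed on Illumina chips by stalled E. coli RNA polymerase.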

[1] = Eterna round: R95, input ligand: FMN 200 uM
[2] = Eterna round: R95, input ligand: microRNA oligo, concentration not stated
[3] = Eterna round: R95, input ligand: none
[4] = input ligand: microRNA oligo, concentration not stated

Sequence	apparent KD of MS2 coat protein (input ligand: FMN 200 uM)	apparent KD of MS2 coat protein (input ligand: none)	apparent KD of MS2 coat protein [1]	apparent KD of MS2 coat protein [2]	apparent KD of MS2 coat protein [3]	apparent KD of MS2 coat protein [4]
CUACCCUCAGGAUAUUUUGCACUGUACAUGAGGAUCACCCAUGUGACGUCUGUUAAUCAAAGAGAAGGGAGAGGUG [Eternabot (L1) Solution 27] (Eterna round: R97, puzzle: Exclusion 5)	19.7 nM	25.1 nM				
GAAAAUAGUGAGGAUAUAUCACGGAUACCCGAGAUAGAAGGCACUACAUGAGGAUCACCCAUGUUCGGGUGUCC [Areleon] (Eterna round: R97, puzzle: Exclusion 6)	107 nM	79.3 nM				
GCACUGCGAGGAUAUACAUGAGGAUCACCCAUGUGUCGGCAGACUUGUUUGGUCUAAGGUAGAAGGCGCGUAAA [JR_Ex3_Sub003] (Eterna round: R97, puzzle: Exclusion 3)	145 nM	39.7 nM				
AAGAAACAUGAGGAUCACCCAUGUGAGGAUAUGAGAAAGAAAAGAAAAGAAAGAAGAUUCAGAAGGCACAAAGG [salish99-ex1_r3_035] (puzzle: Exclusion 1)			91.9 nM	43.9 nM	50 nM	
GAAAACGAAGAGGAUAUUUGAUAUCAUAGCUUCAAAGAAGGCUUCACAUGAGGAUCACCCAUGUGAUCUUCAAU [Mat - Exclusion 6 - JL Mod - D19] (Eterna round: R97, puzzle: Exclusion 6)	116 nM	23.8 nM				
AUAUUACGAGGAUAUCGUUUUUAUCACAUGAGGAUCACCCAUGUAAUUUAUGUUUCGUUUCGAGAAGGCGUAAGUU [JR_E5_Sub068] (puzzle: Exclusion 5)				17.8 nM		
AAAUUGUGAGGAUAUCCAAUAUAUGACAUGAGGAUCACCCAUGUUUCCACUCGUACCUCCGGAGAAGGCACUUAAA [Ex5 #44] (Eterna round: R97, puzzle: Exclusion 5)	27.1 nM	25.5 nM				
UCGCUCCGUGUAGGAUAUCGCCGUUCUAUUCGGCGAGAAGGACAUGAGGAUCACCCAUGUAUGUUAUUAUCACGCGUGGCGCAC [Design 57] (Eterna round: R96, puzzle: Exclusion NG 1)	21.5 nM	19.6 nM				13.9 nM
UAAAAGGCAGGAUAUGCAGAAAAGGAAACUUUUCAAGAAUGACAUGAGGAUCACCCAUGUAGAAGGGCCUUUUA [Alacar Attempt 3] (Eterna round: R97, puzzle: Exclusion 2)	15.5 nM	16.2 nM				
CGAUGCUCGAAUCCACAUGAGGAUCACCCAUGUCGAGUUAGCGAGGAUAUCGGUGACACAUAGUACGAGAAGGCGCGAACCUGA [Ex NG3 #25] (Eterna round: R96, puzzle: Exclusion NG 3)	50.9 nM	34.8 nM				28.3 nM
GCGCCAUCGUGAGAUGGCGUAAUUACAUGAGGAUCACCCAUGUAGGAUAUCGAUUGCUUUGCAGUCGAGAAGGGCGUGAUAAUU [JL ENG3 3.70] (Eterna round: R96, puzzle: Exclusion NG 3)	77.7 nM	75.5 nM				52.5 nM
CACGAAAUGUGAGGAUAUGUGCGACAAAGUUGCACAGAAGGCACAUGAGGAUCACCCAUGUAAGCUAGGUCGAAAGACCUAGCG [Omei Exc(NG)1 Av2] (Eterna round: R96, puzzle: Exclusion NG 1)	269 nM	89.8 nM				56.3 nM
UAUAUAUAGUAAGGAUAUGUAUUUAUAUUAUAAACAGAAGGUACUGACAUGAGGAUCACCCAUGUUUUAGUGUGGGCAUGUAGA [JMF's solution 15] (Eterna round: R96, puzzle: Exclusion NG 1)						66.6 nM
GCCUCACAUGAGGAUCACCCAUGUCAGGAUAUCUAAGGCGAGGUGCAGGCACUUCGUGAGAGAAGGGACGUCAA [Ercecequ] (puzzle: Exclusion 1)				18 nM		
GAGAAAUUAUAGGAUAUCGAAAGUAUAAUUUAACGAGAAGGAUGAACAUGAGGAUCACCCAUGUGGUAUCAUGG [JL-ex6-3.10] (puzzle: Exclusion 6)			283 nM	88.2 nM	297 nM	
CUGGUCCGAGGAUAUAUUAAGUGAUACAUGAGGAUCACCCAUGUAAUUUAAUGGAAGUAAAUAGAAGGCGGACUAG [Mat - Exclusion 5 - JL mod - D50] (puzzle: Exclusion 5)			79.8 nM	53 nM	80.5 nM	
UCAUGGUAGCAGGAUAUGCUAUUUAUUUUUUAUGCAGAAGGGCUUACAUGAGGAUCACCCAUGUGUUAGGUUUA [JR_E6_Sub072] (puzzle: Exclusion 6)				81.3 nM		

Sequence	apparent KD of MS2 coat protein (input ligand: FMN 200 uM)	apparent KD of MS2 coat protein (input ligand: none)	apparent KD of MS2 coat protein [1]	apparent KD of MS2 coat protein [2]	apparent KD of MS2 coat protein [3]	apparent KD of MS2 coat protein [4]
ACGCAUUGCCUUUGGUAGUGCGUAACAUGAGGAUCACCCAUGUAGGAUAUGGUAGGCUUUGCUUACCAGAAGGACAUAAUAAUU [JL ENG3 1.01] (Eterna round: R96, puzzle: Exclusion NG 3)	54.1 nM	26.1 nM				21.7 nM
UAUUAGCAAGUGAGGUCCCACAUGAGGAUCACCCAUGUGCUCGUCUUAUAAGGUACUGUGACGAUAGUCACGGUACC [Mat - Sensor, turn-off var - Eli Mod - D51] (Eterna round: R97, puzzle: Sensor, turn-off variant 1)	45.4 nM	45.5 nM				
UAGAAACAUGAGGAUCACCCAUGUGAGGAUAUGAAAAAGAAAAGAAAAGAAAGAAGAAUCAGAAGGCACAAAGU [salish99-ex1_r3_087] (puzzle: Exclusion 1)			30.5 nM	27.2 nM	32.3 nM	
AUCGUGCAGCUUUGCUGUACGAGUACAUGAGGAUCACCCAUGUAGGAUAUGGUACGCUUUGCGUGCUAGAAGGAUAUGUGUAGG [JL EXNG3 1.36] (Eterna round: R96, puzzle: Exclusion NG 3)	49.1 nM	50.3 nM				30.7 nM
CGGUGCUGAGGAUAUACAUGAGGAUCACCCAUGUGUGCCAGCUAGCUGACUGGCGCUUGUAGAAGGCAGUACUG [JL-ex3-2.12 Brourd mod] (puzzle: Exclusion 3)				11.4 nM		
AGCUGUGGCCGAGGAUAUACACAUGAGGAUCACCCAUGUAGGCGCGGAAACGCGCUAAAAGGGUUGUAGAAGGCGGUCUCAGCA [Eli eng2 - 054] (Eterna round: R96, puzzle: Exclusion NG 2)	471 nM	114 nM				165 nM
CUGAUGUCAGGAUAUCGGUGGCUCACUUGUGUGUGCCAGUUCGAGAAGGGACAUGAGGAUCACCCAUGUUUUUA [Exclusion 4 (Mod2 of #36 by Marzena11)] (Eterna round: R97, puzzle: Exclusion 4)	486 nM	75.2 nM				
CUUUUGUGAGGAUAUCAGUAGUAAUAUAAUAGUAUUACUACUGAGAAGGCACAUGAGGAUCACCCAUGUUCCUC [Ex4 344 Omei mod 8] (puzzle: Exclusion 4)				27.9 nM		
AAAUAUCAUGUAGGAUAUGGUAGGCGAACCUUACCAGAAGGACAUGAGGAUCACCCAUGUGCUGAGUUGUCCGUAGACAGCUCU [Ex NG1 #4] (Eterna round: R96, puzzle: Exclusion NG 1)	74.1 nM	78.7 nM				63.7 nM
AAUUAUUAUUGAGGAUAUCGUAUUGAAACAAUACGAGAAGGCGGAAUAAACAUGAGGAUCACCCAUGUGAGCCUGAUGCUUGUG [Ex NG1 #42] (Eterna round: R96, puzzle: Exclusion NG 1)						13.4 nM
CGUCGAAAUGUAGGAUAUCUGCACGUUUAGUGCAGAGAAGGACAUGAGGAUCACCCAUGUAGAUCACGACGAAUUAAUUUAAUU [ENG1/5-C2] (Eterna round: R96, puzzle: Exclusion NG 1)	374 nM	65.8 nM				47.3 nM
GUCAGCUCGUCAGGAUAUACAUGCGUGCUUCGGCACGAAUUUAAGAUCACAUGAGGAUCACCCAUGUAGAAGGGACGAGCUGAU [ENG2/3-B2] (Eterna round: R96, puzzle: Exclusion NG 2)	819 nM	600 nM				441 nM
AGGAGCCCACGGGCUCCAAAACAUGAGGAUCACCCAUGUCAGUAGGAUAUCAUGCUUUUCUGCUGUGAGAAGGGCUGAUGUGGC [Esededor] (Eterna round: R96, puzzle: Exclusion NG 3)	199 nM	49 nM				33.8 nM
ACUGGUGCAGGAUAUGCAAUCGUGCUUCGGCACGUAAGGUCACAUGAGGAUCACCCAUGUAGAAGGGCACCAGU [E2/4-D1] (Eterna round: R97, puzzle: Exclusion 2)	33.2 nM	12.6 nM				
ACAUGAGGAUCACCCAUGUCCGGCUGGUCUGUCUCGGCUGUCGAGGAUAUAGCACGGUAUCCGCGCUAGAAGGCGGGAGCCGGG [Aenatbe mod 88] (Eterna round: R96, puzzle: Exclusion NG 3)	237 nM	193 nM				127 nM
GCGGAGUCAGGAUAUUGAAUUUAACGUACCAAUAAGGUACGCGAGAAGGGACAUGAGGAUCACCCAUGUACCGC [Mat - Exclusion 4 - Eli Mod - D35] (Eterna round: R97, puzzle: Exclusion 4)	16.5 nM	17.3 nM				
GAUUAUGCGAGCUUUAGGGACAUGAGGAUCACCCAUGUUCGUCUUAUUGGUCUAAAUGCACUAACAUACCUAAAUCU [JMF 23] (puzzle: Sensor v3, turn-off variant 1)			17.7 nM	22.4 nM	19.3 nM	
